Results as given in publication PMC2683204.

Molecular target: Fluorescein-maleamide labeled purified FN (UniProt P02751)
Test: SDS-PAGE, non-reducing against reducing

stoichiometry N: 2
Substance: Fluorescein-maleamide labeled purified FN (from UniProt P02751 32-2477) (natural protein)
